US20240262926A1 (published 2024)

What was measured:
[1] = target: human TrkB (GenBank Acc. No. NP_001018074.1) expressed in CHO cells (human, UniProt Q16620 32-822); assay: cell-based or functional assay
[2] = target: T1, recombinant human TfR (r human TfR: Sino Biological Inc.) (human, UniProt P02786 89-760); assay: ELISA, plate-coated recombinant TfR, detection with biotin-labeled anti-BDNF antibody and streptavidin-HRP
T1 construct: Bought product; also called r human TfR-ECD (Histag); hTfR; not shown: histidine tag attached to the N-terminus
Procedure: (§1) The affinity of the hBDNF-anti-hTfR antibody fusion protein to hTfR was measured using an ELISA method. The measurement by the ELISA method was generally carried out by the following method. As human TfR, recombinant human TfR (r human TfR: Sino Biological Inc.) having the amino acid sequence of the extracellular region of hTfR, ranging from the cysteine residue at the position 89th from the N-terminal side to the phenylalanine at the C-terminus in the amino acid sequence set forth as SEQ ID NO:1, to the N-terminus of which a histidine tag was added, was used. As monkey TfR, recombinant monkey TfR (r monkey TfR: Sino Biological Inc.) having the amino acid sequence of the extracellular region of cynomolgus monkey hTfR, ranging from the cysteine residue at the position 89th from the N-terminal side to the phenylalanine at the C-terminus in the amino acid sequence set forth as SEQ ID NO:2, to the N-terminus of which a histidine tag was added, was used. The measurement was carried out on the hBDNF-anti-hTfR antibodies 3, 4 and 6 among the hBDNF-humanized anti-hTfR antibody fusion proteins obtained in Example 17.
(§2) Recombinant human and monkey TfR (Sino Biological Inc.) were each diluted to 0.5 μg/mL, and the diluted solution was then added in an amount of 100 μL to each well of a 96-well plate (Nunc Inc), followed by leaving it to stand for 1 hour. […]

[3] = target: T2, recombinant monkey TfR (r monkey TfR: Sino Biological Inc.) (cynomolgus monkey (Macaca fascicularis), UniProt Q5RDH6 89-760 (Pongo abelii entry)); assay: as above
T2 construct: Bought product; also called r monkey TfR-ECD (Histag); cynomolgus monkey TfR; not shown: histidine tag attached to the N-terminus
T2 chain: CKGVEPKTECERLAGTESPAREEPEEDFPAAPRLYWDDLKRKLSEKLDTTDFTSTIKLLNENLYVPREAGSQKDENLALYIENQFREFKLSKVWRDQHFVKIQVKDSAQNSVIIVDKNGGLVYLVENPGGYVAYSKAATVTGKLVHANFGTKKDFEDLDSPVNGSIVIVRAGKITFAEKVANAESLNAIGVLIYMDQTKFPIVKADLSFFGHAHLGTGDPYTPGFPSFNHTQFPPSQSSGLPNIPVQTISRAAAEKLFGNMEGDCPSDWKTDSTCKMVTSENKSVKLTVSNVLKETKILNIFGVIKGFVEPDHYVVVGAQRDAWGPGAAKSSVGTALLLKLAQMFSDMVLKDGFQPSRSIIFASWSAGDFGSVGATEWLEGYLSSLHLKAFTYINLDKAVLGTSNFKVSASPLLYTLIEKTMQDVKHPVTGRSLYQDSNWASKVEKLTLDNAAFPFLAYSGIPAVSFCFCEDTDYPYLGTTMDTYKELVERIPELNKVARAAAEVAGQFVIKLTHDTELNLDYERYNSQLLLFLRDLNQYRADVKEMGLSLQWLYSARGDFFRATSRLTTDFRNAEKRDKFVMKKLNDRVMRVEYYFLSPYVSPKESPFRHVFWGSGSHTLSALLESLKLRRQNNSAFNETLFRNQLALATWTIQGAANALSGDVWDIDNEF
Procedure: as §1, §2

[4] = target: T1, recombinant human TfR (r human TfR: …); assay: BLI (Octet RED96), method of Example 7, His-tagged TfR ECD on Ni-NTA sensor
Procedure: (§3) Each of the antibodies (anti-hTfR antibody Nos. 1 to 14) purified above was subjected to 2-fold dilution steps with HBS-P+(10 mM HEPES containing 150 mM NaCl, 50 μM EDTA and 0.05% Surfactant P20) to prepare antibody solutions of 7 different concentrations, 0.78125 to 50 nM (0.117 to 7.5 μg/mL). These antibody solutions were used as the sample solutions. The r human and r monkey TfRs were respectively diluted with HBS-P+ to prepare 25 μg/mL solutions, which were used as r human TfR-ECD (Histag) solution and r monkey TfR-ECD (Histag) solution, respectively.
(§4) Each of the sample solutions prepared above by 2-fold dilution steps was added, 200 μL/well, to a 96-well plate, black (Greiner Bio-One Inc.). Each of the r human TfR-ECD (Histag) solution and the r monkey TfR-ECD (Histag) solutions prepared above was added, 200 μL/well, to predetermined wells. To respective wells for baseline, dissociation and washing were added HBS-P+, 200 μL/well. To wells for regeneration were added 10 mM Glycine-HCl, pH 1.7, 200 μL/well. To wells for activation was added 0.5 mM NiCl₂ solution, 200 μL/well. The plate and biosensor (Biosensor/Ni-NTA: ForteBio Inc., a division of Pall Corporation) were set in the prescribed positions of Octet RED96. […] The measurement was performed at 25 to 30° C.
(§5) The affinity of the humanized anti-hTfR antibodies obtained in Example 13 to human and monkey TfRs was measured by the method described in Example 7.

[5] = target: T2, recombinant monkey TfR (r monkey TfR: …); assay: as above
Procedure: as §3, §4, §5

[6] = target: T1, recombinant human TfR (r human TfR: …); assay: ELISA on plate-coated recombinant TfR ('the present measurement method' of Example 18-2)
[7] = target: T2, recombinant monkey TfR (r monkey TfR: …); assay: as above

human TrkB (GenBank Acc. No. NP_001018074.1) expressed in CHO cells, sequence (Q16620 32-822): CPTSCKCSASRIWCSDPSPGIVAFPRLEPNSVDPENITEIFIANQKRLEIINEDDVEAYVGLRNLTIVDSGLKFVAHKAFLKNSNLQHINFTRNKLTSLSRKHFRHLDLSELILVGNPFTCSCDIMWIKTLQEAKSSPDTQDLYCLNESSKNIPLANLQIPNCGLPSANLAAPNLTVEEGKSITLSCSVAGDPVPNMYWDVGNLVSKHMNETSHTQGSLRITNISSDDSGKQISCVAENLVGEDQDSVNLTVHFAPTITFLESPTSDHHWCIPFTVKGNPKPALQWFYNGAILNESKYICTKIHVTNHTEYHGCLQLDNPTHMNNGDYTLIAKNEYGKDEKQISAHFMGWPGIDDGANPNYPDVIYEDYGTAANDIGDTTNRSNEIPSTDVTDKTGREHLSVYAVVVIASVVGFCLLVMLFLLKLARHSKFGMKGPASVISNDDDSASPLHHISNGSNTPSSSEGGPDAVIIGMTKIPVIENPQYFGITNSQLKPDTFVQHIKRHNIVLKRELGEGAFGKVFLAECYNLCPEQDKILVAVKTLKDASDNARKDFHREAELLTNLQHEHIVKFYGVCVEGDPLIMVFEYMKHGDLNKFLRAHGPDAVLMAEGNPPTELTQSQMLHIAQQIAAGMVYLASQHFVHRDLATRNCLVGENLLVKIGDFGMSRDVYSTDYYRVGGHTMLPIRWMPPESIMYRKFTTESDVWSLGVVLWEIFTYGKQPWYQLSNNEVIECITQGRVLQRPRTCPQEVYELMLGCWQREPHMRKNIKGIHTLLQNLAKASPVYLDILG

B1: hBDNF-anti-hTfR antibody 6 (other)
heavy: HSDPARRGELSVCDSISEWVTAADKKTAVDMSGGTVTVLEKVPVSKGQLKQYFYETKCNPMGYTKEGCRGIDKRHWNSQCRTTQSYVRALTMDSKKRIGWRFIRIDTSCVCTLTIKRGRGSGGGGSGGGGSGGGGSGGGGSGGGGSEVQLVQSGAEVKKPGESLKISCKGSGYSFTNYWLGWVRQMPGKGLEWMGDIYPGGDYPTYSEKFKVQVTISADKSISTAYLQWSSLKASDTAMYYCARSGNYDEVAYWGQGTLVTVSSASTKGPSVFPLAPSSKSTSGGTAALGCLVKDYFPEPVTVSWNSGALTSGVHTFPAVLQSSGLYSLSSVVTVPSSSLGTQTYICNVNHKPSNTKVDKKVEPKSCDKTHT
light: DIVMTQTPLSLSVTPGQPASISCRSSQSLVHSNGNTYLHWYLQKPGQSPQLLIYKVSNRFSGVPDRFSGSGSGTDFTLKISRVEAEDVGVYYCSQSTHVPWTFGQGTKVEIKRTVAAPSVFIFPPSDEQLKSGTASVVCLLNNFYPREAKVQWKVDNALQSGNSQESVTEQDSKDSTYSLSSTLTLSKADYEKHKVYACEVTHQGLSSPVTKSFNRGEC
notes: also called fusion protein of hBDNF and humanized anti-hTfR antibody Fab; product of pE-neo (BDNF-Fab HC-1) and pE-hygr (LC3)
- BDNF activity (TrkB agonistic EC50, nmol/L) [1]: 0.16 nmol/L
- EC50 [2]: 0.63 nM
- EC50 [3]: 2.3 nM

B2: humanized anti-hTfR antibody No. 3 (antibody, human IgG1, kappa)
heavy: not shown
light: DIVMTQTPLSLSVTPGQPASISCRSSQSLVHSNGNTYLHWYLQKPGQSPQLLIYKVSNRFSGVPDRFSGSGSGTDFTLKISRVEAEDVGVYYCSQSTHVPWTFGQGTKVEIKRTVAAPSVFIFPPSDEQLKSGTASVVCLLNNFYPREAKVQWKVDNALQSGNSQESVTEQDSKDSTYSLSSTLTLSKADYEKHKVYACEVTHQGLSSPVTKSFNRGEC
notes: IgG1; expressed in CHO-K1, purified on Protein A
- Kd [4]: < 0.001 nM
- koff [4]: < 1e-07 s⁻¹
- kon [4]: 1.19e+06 M⁻¹ s⁻¹
- Kd [5]: 1.12 nM
- koff [5]: 0.000676 s⁻¹
- kon [5]: 603000 M⁻¹ s⁻¹
- EC50 [6]: 0.09 nM
- EC50 [7]: 0.25 nM
